Test results published in US5753621A, “Pulmonary surfactant protein fragments” (Abbott Laboratories, priority 1995, dated 1998).

How the values were obtained:
Type in all cases: physicochemical
[1] = Adsorption capacity, modified Wilhelmy surface balance; conditions: measured after three (3) minutes spreading time; peptide 0.5 mg/ml (~2% of solids)
Protocol: (§1) Prior to testing for surface activity, the synthetic fragments were admixed with lipids. A lipid mixture consisting of 68% 1,2-dipalmitoyl-sn-phosphatidylcholine (DPPC), 22% egg phosphatidylglycerol (PG) and 9% palmitic acid on a weight basis was prepared by dissolving the lipids in chloroform:methanol (2:1). The required amount of peptide fragment was dissolved in methanol and heated to 60° C. for 10 minutes. The peptide solution was then added to the lipid mixture prewarmed to 45° C. for ten minutes. The samples were mixed at 45° C. by gentle swirling at 100 revolutions per minute on a Buchi rotary evaporator. The organic solvents were then evaporated at 45° C. by increasing the vacuum in 100 torr increments every five minutes until most of the solvent was removed. Final vacuum was between 150-200 torr. Following evaporation, the solids were then suspended in 10% ethanol prewarmed to 45° C. and which was prepared using deionized distilled water. The suspension was gently mixed with vortexing and placed back under vacuum at 600 torr with a repeat of the vacuum ramping process. Final vacuum for the ethanol removal was 50 torr. Following complete removal of ethanol the suspension was diluted with aqueous 0.15M NaCl at 45° C. to yield an admixture with a phospholipid concentration of 25 mg/ml. The peptide/lipid admixtures were formed at final peptide concentrations of 0.5 mg/ml (equivalent to 2% of solids concentration).
A procedure similar to that described by Notter, et al., Pediatric Res. 16, 515-519 (1982) was employed to determine the absorption rate in the absence of diffusion resistance. The modified Wilhelmy surface balance as described above was used. However, instead of using a Langmuir trough, a round Teflon dish (5.1 cm diameter) was employed. The subphase, 70 ml of 0.15M NaCl, was allowed to equilibrate to 37° C. in the incubator and was continuously stirred with a Teflon coated magnetic stirrer. An aliquot of the peptide/lipid fragment admixture containing 5 mg of total phospholipid was dispersed in 10 ml of 0.15M NaCl by vortexing for 10 seconds. This dispersion was then added to the saline subphase. Surface tension lowering was monitored using a strip chart recorder connected to the electro-balance output.

[2] = Relative surface activity by dilution studies on the modified Wilhelmy Balance-Langmuir Trough; conditions: 675 ug phospholipid
Protocol: For the purpose of this comparison "surface activity" is defined as follows: For any given peptide concentration, the admixture is required to result in a minimum dynamic surface tension of less than 10 dynes/cm for each of seven consecutive expansion/compression cycles.
Initially each of the admixtures was formulated so as to contain an equal number of moles of the individual peptide as is contained in a 0.5 mg/mL admixture of SP-B(53-78). […] Thereafter, each of these admixtures was diluted with the standard lipid mixture as described in Example 4, so as to provide doubling dilutions of the equimolar "parent" stock peptide admixture. The lipid concentration in all cases was maintained at 25 mg/ml.
Assessment of relative surface activity was conducted on the modified Wilhemy-Langmuir Surface Balance. For these studies a standard volume of 27 ul of each admixture, corresponding to a total phospholipid mass of 675 ug, was applied to the Langmuir Trough with maximum dimensions of 445 sq. cm.

[3] = Pulsating Bubble Surfactometer (PBS) surface tension; conditions: after 5 minutes pulsation (100 cycles); 1 mg/ml phospholipid, peptide 2% of phospholipids; 0.15M NaCl; 37° C.; 20 cycles/minute; SD in parenthesis
Protocol: as §1
The PBS equipment (Electronetics, Buffalo, N.Y.) used was essentially equivalent to that described in detail by G. Enhorning, J. Appld. Physiol. 43, 198-203, (1977). Recordings were made of the pressure gradient across the wall of a small air bubble, communicating with ambient air by means of a narrow chimney stack, but otherwise entirely surrounded by a 40 ul volume of the peptide/lipid admixture. The admixture concentration employed for these studies was 1 mg/ml total phospholipid (0.02 mg/ml total peptide) and the diluent was 0.15M NaCl.
Immediately prior to loading the sample chamber, the diluted samples were sonicated for 15 seconds to remove any gas nuclei.
The pressure drop across the air-water interface was measured during pulsation by a pressure transducer, and the corresponding surface tension was determined at minimum and maximum bubble size through the application of Young's law and the Laplace equation. Measurements were all made at 37° C. and the bubble pulsed at 20 cycles/minute to render respectively a maximum (1.1 mm) and a minimum (0.8 mm) bubble diameter. (This compression/expansion corresponds to a 50% change in the surface area of the air-water interface).

[4] = Dynamic surface tension versus compressed surface area, modified Wilhelmy Surface Balance (Langmuir Trough); conditions: peptide 0.5 mg/ml (~2% of solids) in DPPC:PG:PA 68:22:9; 675 ug phospholipid on 445 sq. cm trough; recorded during seven complete cycles
Protocol: as §1
The dynamic surface tension lowering properties of the peptide/lipid admixtures were studied using a modified Wilhelmy Surface Balance (Langmuir Trough). The instrument consists of an all Teflon trough and movable Teflon ribbon (dam) barrier system which completely contains and defines a variable surface area. Surface area was varied through the use of a constant rate reversible 3-phase motor to drive the Teflon barrier. A Cahn 2000 electrobalance (Cahn Instruments, Cerittos, Calif.) with a sandblasted 1 cm platinum plate and stainless steel hangdown wire was employed to determine the surface tension at the liquid-air interface. The entire apparatus was situated in a thermostated incubator set at 45° C. Surface area-surface tension measurements were made by adding 950 ml of 0.15M NaCl to the trough. Subphase temperature was controlled during the measurements at 36°-38° C.
For each experiment 27 ul of peptide/lipid admixture was applied in a random array of 13 droplets to the surface of the temperature controlled subphase and allowed to spread spontaneously for 3 minutes. (The 27 ul application corresponds to 675 ug of phospholipid). The trough surface area was then cycled from a maximum (445 sq. cm) to a minimum (178 sq. cm) surface area and back to maximum at a cycling rate of 3 cycles/min (compression ratio 2.5:1). The dynamic surface tension versus surface area was recorded for 7 complete compression-expansion cycles for each application.

B1: SP-B(1-78): complete SP-B surfactant protein having 78 amino acid residues, used as control (protein, UniProt P07988 201-279, looked up)
Pulmonary …: FPIPLPYCWLCRALIKRIQAMIPKGALAVAVAQVCRVVPLVAGGICQCLAERYSVILLDTLLGRMLPQLVCRLVLRCSM
modifications: Pulmonary surfactant-associated protein B
notes: complete SP-B surfactant protein having 78 amino acid residues, used as control
Adsorption (equilibrium adsorption surface tension) [1]: 37.5 dynes/cm
Mean Minimum Surface Tension, relative peptide concentration 1/2 ([2]; 1/2 dilution of equimolar stock with lipid mixture): 1.5 mN/m
Mean Minimum Surface Tension, relative peptide concentration 1/4 ([2]; 1/4 dilution of equimolar stock with lipid mixture): 4.5 mN/m
Mean Minimum Surface Tension, relative peptide concentration 1/8 ([2]; 1/8 dilution of equimolar stock with lipid mixture): 21.5 mN/m
Mean Minimum Surface Tension, relative peptide concentration Equimolar ([2]; equimolar to 0.5 mg/mL SP-B(53-78), 445 sq. cm trough): 1.5 mN/m
Mean Minimum Surface Tension, relative peptide concentration 2% ([2]; peptide 2% of solids (0.5 mg/ml), 445 sq. cm trough): 1.6 mN/m
Surface tension Maximum (maximum bubble size) [3]: 50.6 (1.7) dyne/cm
Surface tension Minimum (minimum bubble size) [3]: 4.7 (0.3) dyne/cm
Surface Tension Maximum [4]: 44.0 dynes/cm
Surface Tension Minimum [4]: 0.3 dynes/cm
